Patent publication US8114412B2, “T. cruzi-derived neurotrophic agents and methods of use therefor” (priority 1999, dated 2012)
“Also recorded” adds a separate entry of the source.

Experiments:
[1] = tested on: Akt kinase in human Schwann cells; test: Kinase assay of Akt in vitro (GSK-3α substrate) from Schwann cell lysates; assay type: cell-based; conditions: CD 500 ng/ml, 2 minutes
[2] = tested on: Akt kinase in human Schwann cells; test: Immunodetection of activated Akt (Ser473) in Schwann cells
Description: Schwann cells, grown in 10% FCS to 70% confluency in 6-well plates, were switched to DMEM containing 0.1% FCS for 48 hours to reduce basal Akt phosphorylation. Then the cells were placed in serum-free DMEM medium for 2 hours and challenged with TS, CD or other test factors for predetermined periods of time. When the PI-3 kinase inhibitor LY294002 (Sigma) was used, the inhibitor was added to the serum-starved cells 30 minutes before challenge with TS or CD. Cell samples were lysed with lysis buffer (20 mM Tris, pH7.5, 150 mM NaCl, 1 mM EDTA, 1% Triton X-100 (t-Octylphenoxypolyethoxyethanol), 2.5 mM sodium pyrophosphate, 1 mM glycerophosphate, 1 mM Na3VO4, 1 μg/ml leupeptin and 1 mM Phenymethylsulfonyl fluoride (PMSF)). Samples (40 μg) were run on 10% SDS-Page, blotted to nitrocellulose paper and analyzed by Western (immuno) blot with monoclonal antibody specific for P-Ser473 of Akt (New England Biolabs). Reaction was visualized by chemiluminescence using the ECL kit (New England Nuclear).
Schwann cells were seeded in 10% FCS to 50-70% confluency in 10 cm Petri dishes 24 h prior transfection, performed in serum-free DMEM. Cells were maintained in 10% FCS for 24 hr and then switched to medium containing 700 μg/ml G418 (Gibco BRL) and 2% FCS for 3 days and 0.1% FCS for another 4 days with CD added to some cell monolayers. After this cells were assessed for viability by Trypan blue exclusion and by DAPI staining. At the same time cell lysates were analyzed for Akt phosphoryltion by Western (immuno) blots with monoclonal antibody specific for P-Ser473 of Akt (New England Biolabs). Reaction was visualized by chemiluminescence using the ECL kit (New England Nuclear).

normal human neutrophils = test: IL-6 production by normal human neutrophils; assay type: cell-based
IL-6 mRNA in PBMC = test: RT-PCR of IL-6 mRNA in PBMC; assay type: cell-based, human
Description: Semiquantitative analysis of cytokine mRNA was performed by the primer-dropping method (Wong et al., Anal. Biochem. 223:251-258, […])). […] Two μg of total RNA were converted to cDNA in a volume of 20 μl using random hexamer primers according to the manufacturer's instructions (GIBCO-BRL). Synthetic DNA primers for human IL-6 were 5′[…] (SEQ ID NO:24) and 5′[…] (SEQ ID NO:25), and for GAPDH were those described in Example 1 (SEQ ID NO: 10 and SEQ ID NO:11). The PCR mixture contained 20 mM Tris-HCl pH 8.4, 50 mM KCl, 1.5 mM MgCl2, 1 mM dNTP, 200 pM primers and 1 U of Taq polymerase in 50 μl. Thermal cycling conditions were: denaturation step 95 degrees for 5 min; 35 cycles of 95 degrees 30 sec, 60 degrees 30 sec and 75 degrees 1 min, and a final step of 75 degrees for 5 min. At cycle number 9, GAPDH primers were added. Five microliters of the PCR product were alalyzed by electrophoresis through 2% agarose-gel in the presence of 1 μg/ml ethidium bromide.

[3] = tested on: mouse splenocytes, bone marrow cells, and peritoneal cells; test: IL-6 secretion by naive mouse cells; assay type: cell-based; conditions: peritoneal cells from BALB/c and other strains of mice
Bcl-2 mRNA in PC12 cells = test: RT-PCR of Bcl-2 gene transcripts in PC12 cells; assay type: cell-based, rat
Description: Total RNA was extracted from PC12 cells by the acid guanidinum isothiocyanate method (Chomchinski, P., et al., Biotechniques 15: 532-535 (1993)) using TRI-reagent (Molecular Research Center, Inc.). cDNA synthesis was performed according to the instruction of the manufacturer (Gibco-BRL). Reverse transcription reactions were carried out for 50 minutes at 42° C. and were heated to 70° C. for 15 minutes to terminate the reaction using a MiniCycler (MJ Research). Samples were cooled to 4° C. and stored at −20° C. until use.
PCR reactions were performed in 50 μl containing 1.5 μl of template DNA (corresponding to cDNA synthesized from 100 ng of total RNA), 1×PCR buffer, 100 μM of deoxynucleotides, 2.5 mM MgCl2, 10 mM DTT, 10 pM of Bcl-2 primers, and 2 U of Taq DNA polymerase (Gibco-BRL). The synthetic DNA primers for the rat Bcl-2 were: 5′-[…]-3′ (SEQ ID NO:8) and 5′-[…]-3′(SEQ ID NO:9) to give a PCR product of 566 bp. The sequences for synthetic GAPDH DNA primers (Wong, H., et al., Anal. Biochem. 223: 251-258 (1994)) were: 5′-[…]-3′ (SEQ ID NO:10) and 5′-[…]-3′ (SEQ ID NO:11) giving a PCR produce of 306 base pairs. Amplifications were carried out in MiniCycler (MJ Research) using following conditions: 98° C. for 5 minutes (initial heat denaturation), 3 cycles of 94° C. for 1 minute, 63° C. for 1 minute, 72° C. for 1.5 minutes; 3 cycles of 94° C. for 1 minutes, 60° C. for 1 minute, 72° C. for 1.5 minutes, followed by 72° C. for 10 minutes. Primers for GAPDH (10 pM) were added at cycle 7 by the “primer-dropping” method. Aliquots of PCR reaction products were separated by electrophoresis in 2% agarose gels (Ultrapure, Gibco-BRL), containing 0.2 μg/ml ethidium bromide. Gels were analyzed by computerized densitometric scanning using Gel doc 1000 (Bio Rad) and Molecular Analyst Software, version 2.1.

[4] = tested on: primary rat cerebellar granule neurons; test: Survival of primary cerebellar granule neurons in low K+ medium; assay type: cell-based; conditions: serum-free BME 5 mM KCl, TS 100 ng/ml, 24 hours, FDA staining
Description: Cultures enriched in granule neurons were obtained from the cerebellum of 8-days-old Wistar rats (Charles River, Wilmington, Mass.) as described by D'Mello et al., J. Neurosci 17:1548-1560 (1997). Cells were plated in basal Eagle medium (BME, Gibco BRL, Gaithersburg, Md.), supplemented with 10% FCS, 25 mM KCl and 2 mM glutamine (Gibso BRL) on dishes coated with poly-L-lysine and laminin. Cytosine arabinofumoside (10 μM) was added to the culture medium 18-22 hrs after plating to prevent replication of non-neuronal cells. Replacement of culture medium with serum-free BME medium was performed 7-10 days after plating. Cells were maintained in serum-free BME with 5 mM KCl for 3 hrs and challenged with different stimuli. Neuronal survival was assayed after 24 hours by staining with 10 μg/ml fluorescein diacetate (FDA, Sigma) (Jones and Senft, 1985) and with DAPI (see above). Chicken dorsal root ganglia neurons were prepared as described (Cox and Dunlap, J. Gen. Physiol 104:311-336 (1994)).

Molecule	Akt kinase activity in control GFP-transfected Schwann cells [1]	Akt kinase activity in Schwann cells over expressing AktKI ([1]; listed as CD)	Akt phosphorylation in Schwann cells transfected with PTEN mutant pG129R ([2]; CD 500 ng/ml)	phospho-Akt in Schwann cells transfected with empty vector (neo) ([2]; CD 500 ng/ml)	time after which phospho-Akt not detected ([2]; CD 500 ng/ml) [min]	time to activation of Schwann cell Akt kinase ([2]; CD 500 ng/ml) [min]	phosphorylation/activation of Akt kinase in human Schwann cells ([2]; CD 500 ng/ml where stated, Western blot P-Akt (Ser473), listed as CD)	phospho-Akt in Schwann cells over expressing PTEN ([2]; CD 500 ng/ml, listed as CD)	IL-6 production by normal human neutrophils (normal human neutrophils)	expression of IL-6 mRNA in PBMC (IL-6 mRNA in PBMC; TS 1 μg/ml, 4, 10 or 24 hours)	time of maximal upregulation of IL-6 transcripts (IL-6 mRNA in PBMC; after TS stimulation) [h]	IL-6 secretion by naive mouse cells [3]	bcl-2 gene expression in PC12 cells (Bcl-2 mRNA in PC12 cells; TS 2.5 ng/ml, CNTF 50 ng/ml, alone or combined, 17 hours)	expression of Bcl-2 mRNA in PC12 cells (Bcl-2 mRNA in PC12 cells; TS 100 and 200 ng/ml, 17 hours serum-free)	protection of primary cerebellar granule neurons from death in low K+ medium [4]
TS-F: recombinant full catalytic domain of TS, amino acid residues 33-666, His-tagged, expressed in E. coli (protein, listed as Trypanosoma cruzi, His tag, recombinant full catalytic domain of TS, amino acid residues 33-666, His-tagged, expressed in E. coli) ETQIAIKNSRVSSVSRVVDPTVIVKGNKLYVLVGSYYSSRSYWSSHGDARDWDILLAVGEVTKSTAGGKITASIKWGSPVSLKKFFPAEMEGMHTNQFLGGAGVAIVASNGNLVYPVQVTNKRKQVFSKIFYSEDDGKTWKFGKGRSDFGCSEPVALEWEGKLIINTRVDWKRRLVYESSDMEKPWVEAVGTVSRVWGPSPKSNQPGSQTSFTAVTIEGMRVMLFTHPLNFKGRCVRDRLNLWLTDNQRIYNVGQVSIGDENSAYSSVLYKDDKLYCLHEINTDEVYSLVFARLVGELRIIKSVLRSWKNWTATCPAFAPLLIQPLRRQRVVVVPLSPRLVLLAFCRQRLPKRMGGSYRCVNASTANAERVRNGLKFAGVGGGALWPVSQQGQNQRYRFANHAFTLVASVTIHEAPRAASPLLGASLDSSGGKKLLGLSYDEKHQWQPIYGSTPVTPTGSWETGKRYHLVLTMANKIGSVYIDGELLEGSGQTVVPDGRTPDISHFYVGGYKRSDMPTISHVTVNNVLLYNRRQLNTEEIRTLFLSQDLIGTEAHMDSSSDSSAHSTPSTPADSSAHSTPSTPVDSSAHSTPSTPADSSAHGTPSTPVDSSAHGTPSTPADSSAHGTPSTPVDS	stimulation of Akt activity	inability of CD to enhance endogenous Akt enzymatic activity; also recorded: did not activate Akt kinase	did not detectably enhance	boosted levels of phospho-Akt	15	1 to 5	induced transient phosphorylation of Akt kinase	did not result in the generation of phospho-Akt; also recorded: did not induce phosphorylation of Akt kinase	–	–	–	–	–	–	–
TS: T. cruzi trans-sialidase purified by immuno-affinity chromatography from supernatants of infected Vero cells (SEQ ID NO:2, SEQ ID NO:34) (protein, listed as Trypanosoma cruzi) MVAIADARYETSSENSLIDTVAKYSVDDGETWETQIAIKNSRVSSVSRVVDPTVIVKGNKLYVLVGSYYSSRSYWSSHGDARDWDILLAVGEVTKSTAGGKITASIKWGSPVSLKKFFPAEMEGMHTNQFLGGAGVAIVASNGNLVYPVQVTNKRKQVFSKIFYSEDDGKTWKFGKGRSDFGCSEPVALEWEGKLIINTRVDWKRRLVYESSDMEKPWVEAVGTVSRVWGPSPKSNQPGSQTSFTAVTIEGMRVMLFTHPLNFKGRCVRDRLNLWLTDNQRIYNVGQVSIGDENSAYSSVLYKDDKLYCLHEINTDEVYSLVFARLVGELRIIKSVLRSWKNWTATCPAFAPLLIQPLRRQRVVVVPLSPRLVLLAFCRQRLPKRMGGSYRCVNASTANAERVRNGLKFAGVGGGALWPVSQQGQNQRYRFANHAFTLVASVTIHEAPRAASPLLGASLDSSGGKKLLGLSYDEKHQWQPIYGSTPVTPTGSWETGKRYHLVLTMANKIGSVYIDGELLEGSGQTVVPDGRTPDISHFYVGGYKRSDMPTISHVTVNNVLLYNRRQLNTEEIRTLFLSQDLIGTEAHMDSSSDSSAHSTPSTPADSSAHSTPSTPVDSSAHSTPSTPADSSAHGTPSTPVDSSAHGTPSTPADSSAHGTPSTPVDSSAHSTPSTPVDSSAHSTPSTPVDSSAHGAPSTPADSSAHGTPSTPVDSSAHGTPSTPADSSAHSTPSTPADSSAHSTPSTPADSSAHSTPSTPVDSSAHGTPSTPADSSAHSTPSTPADSSAHGTPSTPVDSSAHSTPSTPVDSSAHGTPSTPVDSSAHSTPSTPVDSSAHGTPSTPVDSSAHSTPSTPADSSAHSTPSTPADSSAHGTPSTPVDSSAHSTPSTPADSSAHSTPSTPVDSSAHSTPSTPADSSAHGTPSTPVDSSAHGTPSTPADSSAHSTPSTPADSSAHSTPSTPADSSAHSTPSTPVDSSAHSTPSTPADSSAHSTPSTPADSSAHSTPSTPADSSAHSTPSTPVDSSAHSTPSTPADSSAHGTPSTPADSSAHSTPSTPVDSSAHSTPSTPADSSAHGTPSTPADSSAHSTPSTPADSSAHGTPSTPADSSAHSTPSTPAGSSANGTVLILPDGAALSTFSGGGLLLCACALLLHVFFMAVF	–	–	–	–	–	–	–	–	did not produce detectable IL-6	induces expression of IL-6 mRNA	4 to 10	potently and specifically induced IL-6 secretion; also recorded: upregulator of IL-6 secretion	did not induce bcl-2 gene expression individually	dramatically increased Bcl-2 mRNA; also recorded: induces the expression of Bcl-2 mRNA	effectively protected the neurons from death; also recorded: increased number of viable cells
